Experimental data published in patent US20160176924A1, “MODIFIED PEPTIDES AS POTENT INHIBITORS OF THE PSD-95/NMDA RECEPTOR INTERACTION” (priority 2008, published 2016).

T1: HIS-PDZ2 protein (PSD-95 PDZ2, residues 155-249, with tag …) (human), P78352
T1 chain: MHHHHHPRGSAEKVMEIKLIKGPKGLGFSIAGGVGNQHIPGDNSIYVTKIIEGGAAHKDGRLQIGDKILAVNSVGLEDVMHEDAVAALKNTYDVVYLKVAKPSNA

B1: IETAV (82) (peptide)
peptide: IETAV
modifications: not checked
B2: ESDV (8) (peptide)
peptide: ESDV
modifications: not checked

Legend:
[1] = molecular target: T2, HIS-PDZ1-2 protein (PSD-95 PDZ1-2 tandem, residues 61-249, with tag …) (human), P78352; assay: FP competition, fluorescent NR2B probe
[2] = molecular target: T1, HIS-PDZ2 protein (PSD-95 PDZ2, residues …); assay: FP competition, fluorescent NR2B probe
[3] = molecular target: T2, HIS-PDZ1-2 protein (PSD-95 PDZ1-2 …); assay: ITC; monomeric IETAV, no linker
[4] = molecular target: T3, HIS-PDZ1 protein (PSD-95 PDZ1, residues 61-151, with tag …) (human), P78352; assay: FP competition, fluorescent NR2B probe; truncation series of NR2B peptide (1)
[5] = molecular target: T1, HIS-PDZ2 protein (PSD-95 PDZ2, residues …); assay: as above
[6] = molecular target: T3, HIS-PDZ1 protein (PSD-95 PDZ1, residues …); assay: FP competition, fluorescent NR2B probe

Ki [1] [µM] | Ki [2] [µM] | Kd [3] [µM] | fold increase in Ki [4] [fold] | fold increase in Ki [5] [fold] | Ki [6] [µM] | Binder
2.5 | 1.7 | 1.9 | – | – | – | B1
28 | 28 | – | 3.1 | 6.8 | 56 | B2
